12 molecules from patent publication US20220411514A1 (TRUEBINDING, published 2022) can be followed below.

Assay [1] concerns the target T1, human Galectin-3 (Gal3) (human, UniProt P17931 2-250, limits assumed).
T1 construct: also called hGal3; hGAL3
Put plainly: HDX-MS.

For assay [2], the target named is T2, Human Galectin-3 protein (Acro Biosystems, GA3-H5129) (human, UniProt P17931 2-250).
T2 construct: bought; also called Gal3-ECD-His; Gal3-His; not shown: linker-spaced 6-histidine tag
Put plainly: ELISA, INSR binding to coated Gal3 with 3 ug/mL antibody. A general note: An ELISA detects its analyte on a solid surface through an enzyme-linked reagent.

In assay [3] the target is T1, human Galectin-3 (Gal3). Put plainly: SPR Biacore T200, antibody captured, Gal3 analyte, 1:1 fit. On the technique in general: Surface plasmon resonance follows binding to a sensor surface in real time, without labels.
Assay [4] deals with T3, His-EK-ratGal3 (rat, UniProt P08699 2-262).
T3 construct: not shown: His tag and enterokinase cleavage site
T3 sequence (looked up): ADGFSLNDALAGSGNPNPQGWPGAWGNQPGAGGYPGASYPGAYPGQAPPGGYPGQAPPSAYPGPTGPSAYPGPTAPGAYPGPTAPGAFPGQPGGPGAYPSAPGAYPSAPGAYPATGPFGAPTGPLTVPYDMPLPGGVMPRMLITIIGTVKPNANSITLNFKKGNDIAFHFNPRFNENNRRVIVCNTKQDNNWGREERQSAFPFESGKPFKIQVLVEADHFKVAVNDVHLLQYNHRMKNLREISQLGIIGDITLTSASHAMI
Nature of the assay: SPR Biacore T200, antibody captured by anti-human Fc, 1:1 fit.

Assay [5] deals with T4, His-enterokinase cleavage site (EK)-cynoGal3 (TrueBinding in-house antigen) (cynomolgus, UniProt A0A7N9CYL1 6-247).
T4 construct: also called His-EK-cynoGal3; cynomolgus Gal3; not shown: His tag and enterokinase cleavage site
Nature of the assay: SPR Biacore T200, protocol of Example 9.

The target in assay [6] is T5, mouse Gal3 (mouse, UniProt P16110 2-264, limits assumed). Nature of the assay: SPR Carterra LSA, antibody captured on Protein A/G, Gal3 analyte.
Assay [7] concerns the target T1, human Galectin-3 (Gal3). The assay is described as above.
Assay [8] addresses T4, His-enterokinase cleavage site …. Nature of the assay: SPR Biacore T200, antibody captured, 1:1 fit.
Assay [9] deals with T5, mouse Gal3. Nature of the assay: SPR Carterra LSA, protocol of Example 9.
Assay [10] deals with T1, human Galectin-3 (Gal3). Put plainly: SPR Carterra LSA, protocol of Example 9.
For assay [11], the target named is T6, Peptide 5 of Gal3 (human).
T6 peptide: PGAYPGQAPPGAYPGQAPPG
Put plainly: peptide ELISA, antibody as hIgG4(S228P) at 5 ug/mL.

In assay [12] the target is T7, Peptide 6 of Gal3 (human).
T7 peptide: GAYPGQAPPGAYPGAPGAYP
Nature of the assay: peptide ELISA, antibody as hIgG4(S228P) at 5 ug/mL.

In assay [13] the target is T2, Human Galectin-3 protein (Acro …). Nature of the assay: SPR sandwich binning, Carterra LSA.

T1 sequence (P17931 2-250 limits assumed): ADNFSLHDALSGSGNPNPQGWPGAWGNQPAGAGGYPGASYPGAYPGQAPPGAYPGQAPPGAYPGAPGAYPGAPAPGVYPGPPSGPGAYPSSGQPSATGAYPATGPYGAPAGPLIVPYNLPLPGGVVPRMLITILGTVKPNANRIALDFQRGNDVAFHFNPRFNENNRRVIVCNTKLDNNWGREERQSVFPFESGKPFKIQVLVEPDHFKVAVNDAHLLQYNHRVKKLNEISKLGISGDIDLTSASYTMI
T2 sequence (P17931 2-250): as the sequence (P17931 2-250 limits assumed) above
T4 sequence (A0A7N9CYL1 entry or part of it): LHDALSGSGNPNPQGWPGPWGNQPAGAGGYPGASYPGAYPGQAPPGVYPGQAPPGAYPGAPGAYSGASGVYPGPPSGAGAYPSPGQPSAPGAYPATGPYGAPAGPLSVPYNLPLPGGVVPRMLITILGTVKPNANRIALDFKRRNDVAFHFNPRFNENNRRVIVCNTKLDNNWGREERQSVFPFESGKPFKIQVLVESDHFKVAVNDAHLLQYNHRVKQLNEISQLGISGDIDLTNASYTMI
T5 sequence (P16110 2-264 limits assumed): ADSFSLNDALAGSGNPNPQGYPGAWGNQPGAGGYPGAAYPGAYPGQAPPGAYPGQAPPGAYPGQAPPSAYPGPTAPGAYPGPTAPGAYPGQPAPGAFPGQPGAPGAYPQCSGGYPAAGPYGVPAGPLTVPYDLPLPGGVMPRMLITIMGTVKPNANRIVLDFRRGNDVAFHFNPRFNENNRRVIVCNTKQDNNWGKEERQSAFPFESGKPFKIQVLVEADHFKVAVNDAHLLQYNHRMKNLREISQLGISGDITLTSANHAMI

B1: Arg 228-Val 292 truncated form of GLUT4 (other)
chain: RYLYIIQNLEGPARKSLKRLTGWADVSGVLAELKDEKRKLERERPLSLLQLLGSRTHRQPLIIAV
For B1, the binding result in assay [1] was “binds”.

B2: 12G5.D7 (antibody, V domains shown)
VH: QVQLKQSGAELVRPGASVKLSCKASGYTFTDYYINWVKQRPGQGLEWIARIYPGTGNTDYNEKFKGRATLTAEKSSSTAYMQLSSLTSEDSAVYFCARFAYYYGSGGYFDYWGHGTTLTVSS
VL: DILMTQSPSSMSVSLGDTVSITCHASQGINSNMGWLQQKPGKSFKGLIYHATNLEDGVPSRFSGSGSGADYSLTISSLESEDFADYYCVQYAQFPPTFGSGTKLEIK
The term Kd denotes a measure of binding affinity in units of concentration. B2: the “inhibition of Gal3-INSR binding, %” value in assay [2] is at most 30%. This molecule also showed a Kd in assay [3] of 1.9 nM.

B3: TB001 (antibody, V domains shown)
VH: QVQLVQSGSELKKPGASVKVSCKASGYTFTNYGMNWVRQAPGQGLKWMGWINTNTGEPTYVEEFTGRFVFSLETSVSTAYLQISSLKAEDTAVYFCAPYDNFFAYWGQGTTVTVSS
VL: DIVLTQSPLSLPVTPGEPASISCRSSKSLLYKDGKTYLNWFLQKPGQSPQLLIYLMSTHASGVPDRFSGSGSGTDFTLKISRVEAEDVGVYYCQQLVDYPLTFGGGTKLEIKR
As for B3, the Kd in assay [4] came out at 14 nM; in assay [5], 34 nM; in [6], 2.3 nM; in assay [7] it was 3.6 nM; in [8], 8.9 nM; in assay [9], 4.2 nM. This molecule also registered an equilibrium dissociation constant (Kd) in assay [10] of 9.7 nM.

B4: 24D12.2H9 (antibody, V domains shown)
VH: QVQLKQSGPGLVQPSQSLSITCTVSGFSLTSYGVHWVRQAPGKGLEWLGVIWSGGSTDYNAAFMSRLSISKDNSKSQVFFKMNSLQADDTAIYYCAKSPDGYDVAWFGYWGQGTLVTVSA
VL: DIVMTQSHKFMSTSVGDRVSITCKASQDVRTAVAWYQQKPGQSPKLLIYWASTRHTGVPDRFTGSGSGTDFTLTLSNVQSEDLADYFCQQYSSYPWTFGGGTKLEIKR
Turning to B4, the “inhibition of Gal3-INSR binding, %” value in assay [2] is at most 30%. Besides, binding in [3] was characterised by a dissociation constant (Kd) of 4.13 nM.

B5: 15G7.2A7 (antibody, V domains shown)
VH: EVQLQQSGPELVKPGASVKISCKASGYTFTDYYMNWVKQSHGKSLEWIGDINPNNGGTNYNQKFKGKATLTVDKSSSTAYMELRSLTSEDSAVYYCTSGYGFPYWGQGTLVTVSA
VL: DIQMNQSPSSLSASLGDTISITCRASQNINIWLSWYQQKPGNIPQLLIYKASNLHTGVPSRFSGSGSGTDFTLTISSLQPEDIATYYCLQGQSYPLTFGAGTKLVMKR
As for B5, the “inhibition of Gal3-INSR binding, %” value in [2] was above 99%. In [3], this molecule registered a Kd of 27.8 nM.

B6: F847C.21H6 (antibody, V domains shown)
VH: QIQLVQSGPELKKPGETVKISCKASGYTFTIFGMNWVKQAPGKGLKWMGWVNTYTGEPTYADDFKGRFAFSLETSASTAYLQINNLKNEDTATYFCARGWFAYWGQGTLVTVSA
VL: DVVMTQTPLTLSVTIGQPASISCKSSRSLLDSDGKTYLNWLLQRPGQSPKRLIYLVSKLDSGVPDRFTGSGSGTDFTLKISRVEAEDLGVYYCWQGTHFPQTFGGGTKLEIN
With B6, the binding result in assay [11], in assay [12] and in assay [13] was “binds” throughout.

B7: TB006 (antibody, V domains shown)
VH: QVQLVQSGAEVKKPGASVKVSCKASGYSFTNYYMHWVRQAPGQRLEWMGWIYPGSGNTNYNEKFQGRVTITADTSASTAYMELSSLRSEDTAVYYCSTAPGGFDVWGQGTTVTVSS
VL: DIVMTQTPLSLSVTPGQPASISCKSSKSLLHSDGITYLYWYLQKPGQSPQLLIYRMSNLASGVPDRFSGSGSGTDFTLKISRVEAEDVGVYYCAQMLEFPLTFGQGTKLEIKR
In the case of B7, the Kd stood at 9.4 nM in assay [5]; 40000 nM in assay [6]; 8.9 nM in [7]; 5.1 nM in assay [8]; 23 nM in assay [10].

B8: 19B5.2E6 (antibody, V domains shown)
VH: QIQLVQSGPELKKPGETVKISCKASGYTFTTYAMSWVKQAPGKGLKWMGWINTYSGVPTYADDLKGRFAFSLETSASTAYLQINNLKNEDTATYFCARGPYAMDYWGQGTSVTVSS
VL: DIQMTQTTSSLSASLGDRVTISCSASQGINNYLNWYQQKPDGTVKLLIYYASSLHSGVPSRFSGSGSGTDYSLTISNLEPEDIATYYCQQYSQVPYTFGSGTKLEIKR
Regarding B8, the “Gal3-INSR binding left, % of unblocked sample” value (from here on “Gal3-INSR binding left, %”) in assay [2] is below 5%.

B9: 23H9.2E4 (antibody, V domains shown)
VH: B8 VH
VL: DIQMTQTTSSLSASLGDRVTISCSASQGINNYLNWYQQKPDGTVKLLIYYASSLHSGVPSRFSGSGSGTDYSLTISNLEPEDIATYYCQQYSQVPYTFGSGTKLEIK
As for B9, in assay [2], the “Gal3-INSR binding left, %” value is below 5%.

B10: 9H2.2H10 (antibody, V domains shown)
VH: QVQLQQPGAELVGPGSSVKLSCKASGYTFTNYWIHWVKQRPLQGLEWIGNIDPSDSETHYNQKFKDKATLTVDKSSSTAYMQLSSLTSEDSAVYYCARHGYYDYWGQGTTLTVSS
VL: DIVMTQSHKFMSTSVGDRVSITCKASQDVSTAVAWYQQKPGQSPKLLIYWASTRHTGVPDRFTGSGSGTDYTLTISSVQAEDLALYYCQQHYTTPLTFGAGTKLELKR
Turning to B10, the “inhibition of Gal3-INSR binding, %” value in assay [2] was at most 30%. The same molecule returned a Kd in [3] of 2.53 nM.

B11: 13G4.2F8 (antibody, V domains shown)
VH: QVQLQQPGAELVKPGASVKLSCKASGYTFTSYWMHWVKQRPGQGLEWIGMIHPNSGSTDYNEKFKNKATLNVDKSSSTAYIQLSSLTSEDSAVYYCTRWGIYYYARDYWGQGTTLTVSS
VL: DIVMTQSQKFMSTSVGERVSITCKASQNVGTNVAWYQQKAGQSLELLIYGASNRHTGVPDRFTGSGSGTDFTLTITNVQSEDMTNYFCEQYSNFPLTFGAGTKLELKR
Consider B11, for which the “inhibition of Gal3-INSR binding, %” value in assay [2] is at most 30%. Moreover, binding in assay [3] was characterised by a dissociation constant (Kd) of 18.4 nM.

B12: 3B11.2G2 (antibody, V domains shown)
VH: QIQLVQSGPELKKPGETVKISCKTSGYKFKTYVMSWVKQAPGKALKWMGWINTYSGVPTYADDFKGRFAFSLETSASTAYLEIINLKNEDTATYFCARDGNYGDPMDYWGQGTSVTVSS
VL: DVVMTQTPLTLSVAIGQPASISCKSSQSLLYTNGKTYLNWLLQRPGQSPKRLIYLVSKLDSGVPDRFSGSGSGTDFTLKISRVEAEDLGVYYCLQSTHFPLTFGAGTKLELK
For B12, in assay [2], the “Gal3-INSR binding left, %” value was below 5%.
